In US20150203577A1 (Chugai, published 2015):
Positions count from the first letter of the chain named. Several values for one entry are separate records, joined by “and”; a condition that tells them apart may be missing. Equal entries are not always repeated.

T1: mouse FcγRII (mouse, UniProt P08101 30-210)
T1 construct: also called mFcγRII; mFcgRII
T1 sequence: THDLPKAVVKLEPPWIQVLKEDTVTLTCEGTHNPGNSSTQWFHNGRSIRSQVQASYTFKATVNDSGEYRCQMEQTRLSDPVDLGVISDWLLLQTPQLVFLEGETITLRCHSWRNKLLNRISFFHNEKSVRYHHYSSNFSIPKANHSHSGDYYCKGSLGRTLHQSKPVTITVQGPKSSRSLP

T2: mouse FcγRIII (mouse, UniProt P08508 31-215)
T2 construct: also called mFcγRIII; mFcgRIII
T2 chain: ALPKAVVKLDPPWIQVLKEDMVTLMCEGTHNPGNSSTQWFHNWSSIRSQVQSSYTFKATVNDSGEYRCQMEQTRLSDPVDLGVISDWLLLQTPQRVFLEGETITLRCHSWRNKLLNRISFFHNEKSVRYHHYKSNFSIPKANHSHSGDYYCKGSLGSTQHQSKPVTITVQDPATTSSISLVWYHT

T3: mouse FcγRII (mouse, UniProt P08101 30-210)
T3 construct: Extracellular domain with C-terminal His tag, made in FreeStyle 293 cells; also called mFcγRII; mFcgRII
T3 sequence: T1 sequence

T4: mouse FcγRIII (mouse, UniProt P08508 31-215)
T4 construct: Extracellular domain with C-terminal His tag, made in FreeStyle 293 cells; also called mFcγRIII; mFcgRIII
T4 chain: T2 chain

B1: H237-MB110/MRAL-k0 (antibody, mouse IgG1, kappa)
heavy: QVQLQESGPGLVKPSETLSLTCAVSGHSISHDHAWSWVRQPPGEGLEWIGFISYSGITNYNPSLQGRVTISRDNSKNTLYLQMNSLRAEDTAVYYCARSLARTTAMDYWGEGTLVTVSSAKTTPPSVYPLAPGSAAQTNSMVTLGCLVKGYFPEPVTVTWNSGSLSSGVHTFPAVLQSDLYTLSSSVTVPSSTWPSETVTCNVAHPASSTKVDKKIVPRDCGCKPCICTVPEVSDVFIFPPKPKDVLTITLTPKVTCVVVDISKDDPEVQFSWFVDDVEVHTAQTQPREEQFNSTFRSVSELPIMHQDWLNGKEFKCRVNSAAFPAPIEKTISKTKGRPKAPQVYTIPPPKEQMAKDKVSLTCMITDFFPEDITVEWQWNGQPAENYKNTQPIMDTDGSYFVYSKLNVQKSNWEAGNTFTCSVLHEGLHNHHTEKSLSHSPGK
light: not shown
notes: copies: 2 + 2
B2: MB053 (antibody, mouse IgG1, kappa)
heavy: B1 heavy with P231W, D235S
light: not shown
notes: copies: 2 + 2
B3: MB093 (antibody, mouse IgG1, kappa)
heavy: B1 heavy with S234E, D235S
light: not shown
notes: copies: 2 + 2
B4: MB139 (antibody, mouse IgG1, kappa)
heavy: B1 heavy with D235S, V236Q
light: not shown
notes: copies: 2 + 2
B5: MB102 (antibody, mouse IgG1, kappa)
heavy: B1 heavy with S234P, D235S
light: not shown
notes: copies: 2 + 2
B6: MB111 (antibody, mouse IgG1, kappa)
heavy: B1 heavy with D235E
light: not shown
notes: copies: 2 + 2
B7: MB251 (antibody, mouse IgG1, kappa)
heavy: B1 heavy with D235S, F292W
light: not shown
notes: copies: 2 + 2
B8: MB129 (antibody, mouse IgG1, kappa)
heavy: B1 heavy with D235S, V236E
light: not shown
notes: copies: 2 + 2
B9: MB188 (antibody, mouse IgG1, kappa)
heavy: B1 heavy with D235S, I262L
light: not shown
notes: copies: 2 + 2
B10: MB132 (antibody, mouse IgG1, kappa)
heavy: B1 heavy with D235S, V236H
light: not shown
notes: copies: 2 + 2
B11: MB103 (antibody, mouse IgG1, kappa)
heavy: B1 heavy with S234Q, D235S
light: not shown
notes: copies: 2 + 2
B12: MB054 (antibody, mouse IgG1, kappa)
heavy: B1 heavy with P231Y, D235S
light: not shown
notes: copies: 2 + 2
B13: MB162 (antibody, mouse IgG1, kappa)
heavy: B1 heavy with D235S, F237Y
light: not shown
notes: copies: 2 + 2
B14: MB118 (antibody, mouse IgG1, kappa)
heavy: B1 heavy with D235M
light: not shown
notes: copies: 2 + 2
B15: MB199 (antibody, mouse IgG1, kappa)
heavy: B1 heavy with D235S, S263A
light: not shown
notes: copies: 2 + 2
B16: MB052 (antibody, mouse IgG1, kappa)
heavy: B1 heavy with P231V, D235S
light: not shown
notes: copies: 2 + 2
B17: MB126 (antibody, mouse IgG1, kappa)
heavy: B1 heavy with D235Y
light: not shown
notes: copies: 2 + 2
B18: MB121 (antibody, mouse IgG1, kappa)
heavy: B1 heavy with D235Q
light: not shown
notes: copies: 2 + 2
B19: MB143 (antibody, mouse IgG1, kappa)
heavy: B1 heavy with D235S, V236W
light: not shown
notes: copies: 2 + 2
B20: MB261 (antibody, mouse IgG1, kappa)
heavy: B1 heavy with D235S, S294L
light: not shown
notes: copies: 2 + 2
B21: MB161 (antibody, mouse IgG1, kappa)
heavy: B1 heavy with D235S, F237W
light: not shown
notes: copies: 2 + 2
B22: H237-MB687/MRAL-k0 (antibody, mouse IgG1, kappa)
heavy: B1 heavy with T229E, V230P, S234E, D235L
light: not shown
notes: copies: 2 + 2
B23: H237-MB600/MRAL-k0 (antibody, mouse IgG1, kappa)
heavy: B1 heavy with T229E, V233E, D235W
light: not shown
notes: copies: 2 + 2
B24: H237-MB611/MRAL-k0 (antibody, mouse IgG1, kappa)
heavy: B1 heavy with V233E, S234D, D235E
light: not shown
notes: copies: 2 + 2
B25: H237-MB601/MRAL-k0 (antibody, mouse IgG1, kappa)
heavy: B1 heavy with T229E, V233E, D235S, F237D
light: not shown
notes: copies: 2 + 2
B26: H237-MB657/MRAL-k0 (antibody, mouse IgG1, kappa)
heavy: B1 heavy with T229E, V230P, P231N, S234E, D235F
light: not shown
notes: copies: 2 + 2
B27: H237-MB599/MRAL-k0 (antibody, mouse IgG1, kappa)
heavy: B1 heavy with T229E, V233E, D235F
light: not shown
notes: copies: 2 + 2

These binders were tested against T1, mouse FcγRII (assay: SPR Biacore 4000, KD ratio).
Experimental: (§1) Each altered antibody was analyzed for its interaction with each Fcγ receptor prepared above using Biacore T100 (GE Healthcare Japan Corp.), Biacore T200 (GE Healthcare Japan Corp.), Biacore A100, or Biacore 4000. The running buffer used was HBS-EP+ (GE Healthcare Japan Corp.). The assay temperature was set to 25° C. The sensor chips used were chips prepared by immobilizing Protein L (ACTIGEN or BioVision) onto Series S Sensor Chip CM5 (GE Healthcare Japan Corp.) or Series S Sensor Chip CM4 (GE Healthcare Japan Corp.) by the amine coupling method.
(§2) In order to calculate the KD value of each altered antibody for FcγR, kinetic analysis was conducted according to the following method: first, the antibody of interest was captured onto any of these chips and allowed to interact with mFcγR diluted with a running buffer. For the obtained sensorgram, the assay results were globally fit into the 1:1 Langmuir binding model using Biacore Evaluation Software to calculate an association rate constant ka (L/mol/s) and a dissociation rate constant kd (1/s). From these values, the dissociation constant KD (mol/L) was calculated.

| Binder | relative mFcγRII-binding activity (mIgG1 = 1) |
| --- | --- |
| B1 | 15.1 fold |
| B2 | 1.36 fold |
| B3 | 2.09 fold |
| B4 | 1.54 fold |
| B5 | 2.62 fold |
| B6 | 5.01 fold |
| B7 | 1.49 fold |
| B8 | 6.19 fold |
| B9 | 1.16 fold |
| B10 | 2.12 fold |
| B11 | 1.27 fold |
| B12 | 1.75 fold |
| B13 | 1.4 fold |
| B14 | 1.74 fold |
| B15 | 1.48 fold |
| B16 | 1.36 fold |
| B17 | 1.58 fold |
| B18 | 1.48 fold |
| B19 | 7.42 fold |
| B20 | 2.11 fold |
| B21 | 1.47 fold |

Biological target: T2, mouse FcγRIII
Assay: SPR Biacore 4000, KD ratio
Experimental: as §1, §2

| Binder | relative mFcγRIII-binding activity (mIgG1 = 1) |
| --- | --- |
| B1 | 4.45 fold |
| B2 | 1.02 fold |
| B3 | 0.56 fold |
| B4 | 1.2 fold |
| B5 | 2.37 fold |
| B6 | 1.11 fold |
| B7 | 1.23 fold |
| B8 | 2.42 fold |
| B9 | 1 fold |
| B10 | 1.39 fold |
| B11 | 1.05 fold |
| B12 | 1.11 fold |
| B13 | 1.2 fold |
| B14 | 0.99 fold |
| B15 | 1.19 fold |
| B16 | 1.2 fold |
| B17 | 0.94 fold |
| B18 | 0.94 fold |
| B19 | 6.32 fold |
| B20 | 1.81 fold |
| B21 | 1.13 fold |

Each binder was assayed against T1, mouse FcγRII (assay: SPR Biacore T200, KD ratio).

| Binder | Relative mFcγRII-binding activity (MB110 = 1) | relative mFcγRII-binding activity (mIgG1 = 1) |
| --- | --- | --- |
| B1 | 1 fold | 12.3 fold |

Biological target: T2, mouse FcγRIII
Assay: SPR Biacore T200, KD ratio

| Binder | Relative mFcγRIII-binding activity (MB110 = 1) | relative mFcγRIII-binding activity (mIgG1 = 1) |
| --- | --- | --- |
| B1 | 1 fold | 4 fold |

The binders below were run against T3, mouse FcγRII (assay: SPR (Biacore), antibody captured on Protein L).
Experimental: as §1, §2

| Binder | Kd |
| --- | --- |
| B22 | 345 nM |
| B23 | 171 nM |
| B24 | 192 nM |
| B25 | 389 nM |
| B26 | 118 nM and 211 nM |
| B27 | 306 nM |

Biological target: T4, mouse FcγRIII
Assay: SPR (Biacore), antibody captured on Protein L
Experimental: as §1, §2

| Binder | Kd |
| --- | --- |
| B22 | 5320 nM |
| B23 | 1270 nM |
| B24 | 3420 nM |
| B25 | 3230 nM |
| B26 | 3480 nM and 5870 nM |
| B27 | 3020 nM |

What follows are binders tested against T3, mouse FcγRII (assay: SPR (Biacore), KD of H237-mIgG1/MRAL-k0 (same run) / KD of variant).
Experimental: as §1, §2

| Binder | relative mFcγRII-binding activity (mIgG1 = 1) |
| --- | --- |
| B22 | 0.94 fold |
| B23 | 1.24 fold |
| B24 | 1.11 fold |
| B25 | 0.55 fold |
| B27 | 0.7 fold |

Biological target: T4, mouse FcγRIII
Assay: as above
Experimental: as §1, §2

| Binder | relative mFcγRIII-binding activity (mIgG1 = 1) |
| --- | --- |
| B22 | 0.1 fold |
| B23 | 0.25 fold |
| B24 | 0.09 fold |
| B25 | 0.1 fold |
| B26 | 0.09 fold |
| B27 | 0.11 fold |
